Assay results from article PMC6194124, “Mannosidase activity of EDEM1 and EDEM2 depends on an unfolded state of their glycoprotein substrates” (Communications Biology, 2018).

Target: T1, EDEM1-HA (UniProt Q925U4 1-652)
T1 construct: source: HEK 293, transiently transfected (pCMVsport2), in lysate
T1 sequence (looked up): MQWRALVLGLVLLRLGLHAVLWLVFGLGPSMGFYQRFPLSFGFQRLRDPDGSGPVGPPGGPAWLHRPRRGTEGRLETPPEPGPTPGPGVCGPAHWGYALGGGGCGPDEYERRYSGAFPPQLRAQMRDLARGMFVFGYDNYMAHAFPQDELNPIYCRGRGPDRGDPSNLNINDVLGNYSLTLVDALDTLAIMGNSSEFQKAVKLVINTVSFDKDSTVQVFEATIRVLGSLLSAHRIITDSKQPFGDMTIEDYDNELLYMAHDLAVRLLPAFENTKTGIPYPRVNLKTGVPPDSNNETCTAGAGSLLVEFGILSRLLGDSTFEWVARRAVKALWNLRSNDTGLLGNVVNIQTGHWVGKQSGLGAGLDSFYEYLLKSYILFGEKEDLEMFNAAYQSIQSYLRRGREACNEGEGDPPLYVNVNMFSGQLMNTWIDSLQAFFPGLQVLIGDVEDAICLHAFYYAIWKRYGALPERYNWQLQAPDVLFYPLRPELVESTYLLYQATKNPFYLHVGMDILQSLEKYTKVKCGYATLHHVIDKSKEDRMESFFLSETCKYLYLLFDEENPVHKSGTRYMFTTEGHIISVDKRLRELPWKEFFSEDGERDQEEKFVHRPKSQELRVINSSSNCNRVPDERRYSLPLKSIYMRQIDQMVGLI
Test: co-IP; HEK 293 cells expressing EDEM1-HA or EDEM2-HA with FLAG-TXNDC11 or FLAG-PDI; lysed in mild conditions (1% NP-40, 50 mM Tris/HCl pH 8, 150 mM NaCl); immunoprecipitated with anti-EDEM1 or anti-EDEM2, immunoblotted with anti-FLAG
Settings: partners not purified

B1: FLAG-PDI (enzyme)
chain: not shown
notes: mammalian protein disulfide isomerase (PDI); vector a gift from E. Avezov; also called protein disulfide isomerase; source: HEK 293, transiently transfected, in lysate
- fold weaker coIP than with TXNDC11: ~15 fold
